# Measured values: US20210171647A1
# B1: BMK10 (antibody, from another filing, V domains shown)
# VH: EVQLVQSGAEVKKPGASVKVSCKASGYTFTDSYMSWVRQAPGQGLEWIGDMYPDNGDSSYNQKFRERVTITRDTSTSTAYLELSSLRSEDTAVYYCVLAPRWYFSVWGQGTLVTVSS
# VL: DIQMTQSPSSLSASVGDRVTITCRASQDISNYLNWYQQKPGKAPKLLIYYTSRLRSGVPSRFSGSGSGTDFTLTISSLQPEDFATYYCQQGHTLPPTFGQGTKVEIK
# B2: 1.214.23-u1-IgG1K (antibody, V domains shown)
# VH: QVQLQESGPGLVKPSGTLSLTCVVSGGSISNRNWWSWVRQPPGKGLEWIGEIFHSGNTNYNPSLKSRVTISVDKSKNQFSLKVNSVTAADTAVYYCAKSFAVALDSWGQGTLVTVSS
# VL: DIQLTQSPSFLSASVGDRVTITCRASQDINSYLAWCQQKPGKAPKLLIYAASSLQSGVPSRFSGTGSGTEFTLTISSLQPEDFATYYCQQLFSYPITFGQGTRLEIK
# B3: 1.134.9-u1-IgG1L (antibody, V domains shown)
# VH: QVQLQESGPGLVKPSGTLSLTCAVSGGSISSYNWWSWVRQPPGKGLEWIGEIYHGGNTNYNPSLKSRVTMSVDNSKNQFSLKLSSVTAADTAVYYCARAPGDWGGSPYFDFWGQGTLVTVSS
# VL: SSELTQDPAVSVALGQTVRITCQGDNLRTYYASWYQQKPGQAPILLIYGRNKRPSGIPDRFSGSSSGNTASLTITGAQAEDEAAYYCNSRDSSGNPVVFGGGTKLTVL
# Tests used:
# [1] = molecular target: human CD40 (hPro40) on transfected 293F cells (human) (UniProt P25942); assay: FACS, transfected 293F cells, antibody 2 ug/mL
# Chain of human CD40 (hPro40) on transfected 293F cells (human) (P25942 21-277): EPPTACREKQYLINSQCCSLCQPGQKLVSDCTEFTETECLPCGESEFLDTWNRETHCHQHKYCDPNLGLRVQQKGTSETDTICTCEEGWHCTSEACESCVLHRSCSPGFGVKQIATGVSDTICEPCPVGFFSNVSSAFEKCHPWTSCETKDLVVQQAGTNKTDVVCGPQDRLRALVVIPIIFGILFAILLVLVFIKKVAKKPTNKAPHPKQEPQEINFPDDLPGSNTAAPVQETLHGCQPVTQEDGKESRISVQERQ
# [2] = molecular target: human OX40, full-length, on cells (human) (UniProt P43489); assay: FACS, transfected 293F cells, antibody 2 ug/mL
# Chain of human OX40, full-length, on cells (human) (P43489 29-277): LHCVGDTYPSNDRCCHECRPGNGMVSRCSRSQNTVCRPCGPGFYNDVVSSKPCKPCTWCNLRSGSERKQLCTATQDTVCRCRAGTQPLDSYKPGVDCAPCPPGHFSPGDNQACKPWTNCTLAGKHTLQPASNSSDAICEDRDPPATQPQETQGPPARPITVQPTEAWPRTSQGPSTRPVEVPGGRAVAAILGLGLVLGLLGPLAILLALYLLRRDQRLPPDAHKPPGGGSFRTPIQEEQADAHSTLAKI
# [3] = molecular target: mouse OX40 (mPro1) on transfected 293F cells (mouse) (UniProt P47741); assay: FACS, transfected 293F cells, antibody 2 ug/mL
# Chain of mouse OX40 (mPro1) on transfected 293F cells (mouse) (P47741 20-272): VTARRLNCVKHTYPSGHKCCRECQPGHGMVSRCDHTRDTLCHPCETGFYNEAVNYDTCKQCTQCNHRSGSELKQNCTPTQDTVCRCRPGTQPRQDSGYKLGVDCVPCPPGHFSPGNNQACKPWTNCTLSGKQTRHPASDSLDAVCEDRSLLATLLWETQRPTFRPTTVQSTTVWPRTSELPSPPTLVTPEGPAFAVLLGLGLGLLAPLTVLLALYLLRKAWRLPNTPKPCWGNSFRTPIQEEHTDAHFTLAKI
# [4] = molecular target: human OX40 extracellular domain (ECD) protein (human) (UniProt P43489); assay: SPR, Biacore T200, antibody captured, OX40 as analyte
# Chain of human OX40 extracellular domain (ECD) protein (human) (P43489 29-214): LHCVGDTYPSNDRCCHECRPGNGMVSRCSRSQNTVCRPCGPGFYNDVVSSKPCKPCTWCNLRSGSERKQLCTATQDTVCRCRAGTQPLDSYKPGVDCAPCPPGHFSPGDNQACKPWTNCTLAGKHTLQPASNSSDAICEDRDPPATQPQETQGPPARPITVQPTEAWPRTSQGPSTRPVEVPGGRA
# [5] = molecular target: human OX40, full-length, on cells (human) (UniProt P43489); assay: flow cytometry on activated human CD4+ T cells
# [6] = molecular target: human OX40, full-length, on cells (human) (UniProt P43489); assay: flow cytometry on human OX40 transfected CHO-K1 cells
# [7] = molecular target: human OX40, full-length, on cells (human) (UniProt P43489); assay: flow cytometry, CHO-K1 cells expressing human OX40, MESF beads
# [8] = molecular target: human OX40 extracellular domain (ECD) protein (human) (UniProt P43489); assay: competition ELISA: human OX40 ECD coated, antibody titrated in a mix with a constant concentration of OX40L, bound OX40L detected at OD450
# [9] = molecular target: human OX40, full-length, on cells (human) (UniProt P43489); assay: flow cytometry, MFI against antibody concentration; neither the legend nor paragraph 266 names the cells, target taken as cell-surface human OX40 because the antibodies are anti-OX40
# [10] = molecular target: human OX40 extracellular domain (ECD) protein (human) (UniProt P43489); assay: epitope binning by competition against labelled BMK10 on human OX40 (self-competition control); the antibody named in the legend box is titrated; the text describes an ELISA, the axis on the sheet reads MFI
# [11] = molecular target: xPro1.FL-x10: CRDmox40_1,2,4 (human; mouse) (UniProt P47741); assay: FACS, transfected 293F cells, antibody 1 ug/mL
# [12] = molecular target: xPro1.FL-x11: CRDmox40_1,3,4 (human; mouse) (UniProt P47741); assay: FACS, transfected 293F cells, antibody 1 ug/mL
# [13] = molecular target: xPro1.FL-x1: CRDmox40_1 (human; mouse) (UniProt P47741); assay: FACS, transfected 293F cells, antibody 1 ug/mL
# [14] = molecular target: xPro1.FL-x3: CRDmox40_3 (human; mouse) (UniProt P43489); assay: FACS, transfected 293F cells, antibody 1 ug/mL
# Chain of xPro1.FL-x3: CRDmox40_3 (human; mouse) (P43489 other isoform, or with tags, fused parts or gaps, form in doubt): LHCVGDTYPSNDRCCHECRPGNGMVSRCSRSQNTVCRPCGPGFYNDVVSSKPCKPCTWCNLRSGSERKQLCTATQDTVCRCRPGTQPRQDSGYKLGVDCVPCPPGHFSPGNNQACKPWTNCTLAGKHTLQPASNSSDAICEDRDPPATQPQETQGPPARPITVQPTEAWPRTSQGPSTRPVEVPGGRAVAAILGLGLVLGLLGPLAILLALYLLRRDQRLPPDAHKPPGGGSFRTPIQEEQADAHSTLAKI
# [15] = molecular target: xPro1.FL-x4: CRDmox40_4 (human; mouse) (UniProt P43489); assay: FACS, transfected 293F cells, antibody 1 ug/mL
# Chain of xPro1.FL-x4: CRDmox40_4 (human; mouse) (P43489 other isoform, or with tags, fused parts or gaps, form in doubt): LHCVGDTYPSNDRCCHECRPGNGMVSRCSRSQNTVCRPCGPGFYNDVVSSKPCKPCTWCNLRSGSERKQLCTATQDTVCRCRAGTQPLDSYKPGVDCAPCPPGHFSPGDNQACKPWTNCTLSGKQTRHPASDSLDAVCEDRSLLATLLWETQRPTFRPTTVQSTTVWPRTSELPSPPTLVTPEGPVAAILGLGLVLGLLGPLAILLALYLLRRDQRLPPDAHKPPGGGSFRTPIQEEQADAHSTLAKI
# [16] = molecular target: xPro1.FL-x5: CRDmox40_1-2 (human; mouse) (UniProt P47741); assay: FACS, transfected 293F cells, antibody 1 ug/mL
# [17] = molecular target: xPro1.FL-x6: CRDmox40_2-3 (human; mouse) (UniProt P43489); assay: FACS, transfected 293F cells, antibody 1 ug/mL
# Chain of xPro1.FL-x6: CRDmox40_2-3 (human; mouse) (P43489 other isoform, or with tags, fused parts or gaps, form in doubt): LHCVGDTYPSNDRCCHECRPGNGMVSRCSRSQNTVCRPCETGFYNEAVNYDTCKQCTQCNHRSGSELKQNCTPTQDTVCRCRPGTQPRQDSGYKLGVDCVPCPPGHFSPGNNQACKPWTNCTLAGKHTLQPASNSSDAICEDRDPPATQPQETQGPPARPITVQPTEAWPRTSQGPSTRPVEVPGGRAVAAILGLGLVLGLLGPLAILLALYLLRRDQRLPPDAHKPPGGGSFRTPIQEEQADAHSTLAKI
# [18] = molecular target: xPro1.FL-x7: CRDmox40_3-4 (human; mouse) (UniProt P43489); assay: FACS, transfected 293F cells, antibody 1 ug/mL
# Chain of xPro1.FL-x7: CRDmox40_3-4 (human; mouse) (P43489 other isoform, or with tags, fused parts or gaps, form in doubt): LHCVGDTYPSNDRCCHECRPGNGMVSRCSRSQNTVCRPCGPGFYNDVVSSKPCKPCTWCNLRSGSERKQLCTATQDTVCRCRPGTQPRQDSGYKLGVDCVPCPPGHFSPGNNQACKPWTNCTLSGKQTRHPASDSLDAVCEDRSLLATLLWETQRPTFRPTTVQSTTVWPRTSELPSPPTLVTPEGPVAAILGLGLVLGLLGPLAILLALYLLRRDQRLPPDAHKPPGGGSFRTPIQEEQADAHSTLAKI
# [19] = molecular target: xPro1.FL-x8: CRDmox40_1-3 (human; mouse) (UniProt P47741); assay: FACS, transfected 293F cells, antibody 1 ug/mL
# [20] = molecular target: xPro1.FL-x9: CRDmox40_2-4 (human; mouse) (UniProt P43489); assay: FACS, transfected 293F cells, antibody 1 ug/mL
# Chain of xPro1.FL-x9: CRDmox40_2-4 (human; mouse) (P43489 other isoform, or with tags, fused parts or gaps, form in doubt): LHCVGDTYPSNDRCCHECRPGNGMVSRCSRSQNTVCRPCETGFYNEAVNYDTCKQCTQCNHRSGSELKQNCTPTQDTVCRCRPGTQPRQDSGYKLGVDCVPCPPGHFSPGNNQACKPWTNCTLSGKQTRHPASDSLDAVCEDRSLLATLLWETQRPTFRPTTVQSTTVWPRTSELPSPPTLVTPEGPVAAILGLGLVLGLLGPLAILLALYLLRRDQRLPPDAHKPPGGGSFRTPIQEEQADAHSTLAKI
# [21] = molecular target: xPro1.FL.x2: CRDmox40_2 (human; mouse) (UniProt P43489); assay: FACS, transfected 293F cells, antibody 1 ug/mL
# Chain of xPro1.FL.x2: CRDmox40_2 (human; mouse) (P43489 other isoform, or with tags, fused parts or gaps, form in doubt): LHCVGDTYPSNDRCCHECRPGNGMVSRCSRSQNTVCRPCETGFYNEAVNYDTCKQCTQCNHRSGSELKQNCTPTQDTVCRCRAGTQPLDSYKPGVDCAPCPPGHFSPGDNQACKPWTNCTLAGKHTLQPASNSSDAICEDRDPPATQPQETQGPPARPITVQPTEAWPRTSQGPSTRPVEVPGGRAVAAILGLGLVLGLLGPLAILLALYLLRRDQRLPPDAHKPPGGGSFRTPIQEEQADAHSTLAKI
Binder,MFI [11],PE + % [11] [%],MFI [12],PE + % [12] [%],MFI [13],PE + % [13] [%],MFI [14],PE + % [14] [%],MFI [15],PE + % [15] [%],MFI [16],PE + % [16] [%],MFI [17],PE + % [17] [%],MFI [18],PE + % [18] [%],MFI [19],PE + % [19] [%],MFI [20],PE + % [20] [%],further results
B1,,,,,,,,,,,,,,,,,,,,,MFI [1]: 28.8; PE + % [1]: 0.068%; MFI [2]: 27600; PE + % [2]: 98.3%; MFI [3]: 5000; PE + % [3]: 91.6%; kon [4]: 442000 M⁻¹ s⁻¹; EC50 (read off the curve) [5]: 0.7 nM; EC50 (read off the curve) [6]: 0.6 nM; Kd [7]: 0.23 nM; IC50 (read off the curve) [8]: 3 nM; EC50 (read off the curve) [9]: 0.8 nM; IC50 (read off the curve) [10]: 6 nM
B2,19600,94.4,6260,70.8,5420,82.9,2250,70,23200,97.7,21700,96.5,113,2.31,6540,81.5,42.6,0.743,80.1,0.244,MFI [21]: 23300; PE + % [21]: 92.8%
B3,42.7,0.624,9400,74,6440,75.3,3800,66.1,24100,96.6,61,1.73,211,6.75,9160,80.3,43.2,0.678,44.1,0.668,MFI [21]: 49.5; PE + % [21]: 0.904%
